From paper PMC4666417

Molecular target: eEF1A1 (eukaryotic elongation factor 1 subunit A1), MYC/DDK-tagged (human) (UniProt P68104)
Test: BLI; biotinylated eEF1 subunit (eEF1A1, eEF1B, eEF1D or eEF1G) immobilised on streptavidin biosensor; RT subunits, RT heterodimer, Gag or RTp66 mutants as analytes at 90, 30 and 10 nM (mutants at 90 nM); kinetic buffer 1 mM phosphate, 15 mM NaCl, 0.002% Tween-20, 0.1 mg/ml gelatine, 1000 rpm, OctetRed

Chain of eEF1A1 (eukaryotic elongation factor 1 subunit A1), MYC/DDK-tagged (human) (P68104 whole entry): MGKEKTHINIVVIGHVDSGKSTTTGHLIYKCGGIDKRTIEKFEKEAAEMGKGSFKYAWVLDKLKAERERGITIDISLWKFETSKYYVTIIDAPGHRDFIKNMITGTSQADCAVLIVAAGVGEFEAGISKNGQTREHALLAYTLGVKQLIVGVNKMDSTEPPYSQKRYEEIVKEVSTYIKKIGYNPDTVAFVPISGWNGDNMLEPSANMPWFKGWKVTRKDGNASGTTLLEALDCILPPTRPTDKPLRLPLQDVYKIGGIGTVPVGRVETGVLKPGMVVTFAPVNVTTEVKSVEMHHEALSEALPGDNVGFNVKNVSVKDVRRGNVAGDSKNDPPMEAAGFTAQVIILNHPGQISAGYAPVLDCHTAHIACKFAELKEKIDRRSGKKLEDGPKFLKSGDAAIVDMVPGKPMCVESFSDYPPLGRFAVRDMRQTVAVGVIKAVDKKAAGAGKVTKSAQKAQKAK

| Substance | Kd | koff | kon |
| --- | --- | --- | --- |
| HIV-1 RT p51, 6xHis-tagged, purified (from UniProt P04585 588-1027) (natural protein; other documents disagree on this pair) | 4.13 nM | 0.000185 s⁻¹ | 44800 M⁻¹ s⁻¹ |
| HIV-1 RT p66/p51 heterodimer, purified (from UniProt P04585 588-1147; P04585 588-1027) (complex) | 3.75 nM | 0.000207 s⁻¹ | 55200 M⁻¹ s⁻¹ |
